Target: T1, flag-tagged soluble TL3 (amino acids 105-251 of SEQ ID NO:234) (Homo sapiens (Human), UniProt O75888 105-250)
T1 construct: Heterologous flag-tagged control protein, immobilized in the ELISA; also called flagged tagged TL-3; not shown: Flag tag
T1 sequence: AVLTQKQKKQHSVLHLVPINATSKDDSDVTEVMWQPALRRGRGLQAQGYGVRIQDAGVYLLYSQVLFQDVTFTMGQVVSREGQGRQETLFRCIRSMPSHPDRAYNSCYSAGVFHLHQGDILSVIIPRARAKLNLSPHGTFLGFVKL
Assay: phage ELISA on immobilized flag-tagged soluble TL3
Procedure, shortened: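 Phage displaying scFvs selected against flag-tagged GMAD were screened by ELISA against immobilized flag-tagged soluble TL3 (residues 105-251) as a heterologous flag-tagged counter-target, to check that binding is GMAD-specific.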

B1: GMCC142 (scFv)
scFv: EVQLVQSGAEVKKPGASVTISCKASGYTFTAYYIYWVRQAPGQGLEWMGMSNPNGGYTVYPPNFLGRVTTTPDTSTNTIYMELRSLRSEDTAVYYCARGRGRAPSNAFDFWGRGTLVTVSSGGGGSGGGGSGGGGSALSSELTQDPAVSVALGQTVRITCQGDSLKFYYASWYQQKPGQAPVLVLHGKNNRPSGIPDRFSGSTSRDTASLTITGTQAEDEADYYCNSRDNSDNIVFGTGTKLTVLG
binding result: no binding

Source: patent publication US20050069542A1 (Human Genome Sciences, published 2005)
